# According to the supplement of paper PMC10724198:
# ± gives the standard deviation of the averaged measurements.
# Tested on: Saccharomyces cerevisiae
# Experiment: protein stability index of tFT-peptide fusion (C-terminal peptide) (PSI (0-1 scale)); higher = more stable (slower turnover)
# Conditions: genetic background: wild type; temperature: 30 C
# 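Note: PSI is a weighted mean of sequencing reads over stability bins, variants kept only with over 10 reads, mCherry proximal and sfGFP distal, peptide attached via GGGS linker.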
sequence,measurement,value
GVLARAYPTLWV,protein stability index,0.68 ± 0.035
TVERLGSRRGMA,protein stability index,0.712 ± 0.022
RGRAPLRRPPGP,protein stability index,0.717 ± 0.048
VIDQRIDIAYFS,protein stability index,0.746 ± 0.1
GGRGSRWAGPRC,protein stability index,0.669 ± 0.038
VFLLSDVCGLGL,protein stability index,0.583 ± 0.2
WHLQYTLIPYEA,protein stability index,0.635 ± 0.054
GMLGVGGYGGLW,protein stability index,0.717 ± 0.078
IPLSPLRSPPPR,protein stability index,0.648 ± 0.023
PLPPPPPPPHSP,protein stability index,0.738 ± 0.05
PLPPPPPARLVP,protein stability index,0.649 ± 0.048
CVGARLYMVRDR,protein stability index,0.724 ± 0.046
SGRGWILCAYRV,protein stability index,0.632 ± 0.024
SPPPPPLPPPHP,protein stability index,0.6564 ± 0.0035
RRLLERSIKRSE,protein stability index,0.696 ± 0.016
FYIQVFTPLGGS,protein stability index,0.639 ± 0.0097
FYLRRNILGQDC,protein stability index,0.695 ± 0.0096
KTFPPVTLDFSS,protein stability index,0.609 ± 0.013
ALPETKVSRRQS,protein stability index,0.677 ± 0.11
VALFPVSFFSWL,protein stability index,0.643 ± 0.098
WAGGGVWRVGGR,protein stability index,0.715 ± 0.042
MAFKLFPFGRNL,protein stability index,0.73 ± 0.028
WSGDLRNIEFAR,protein stability index,0.816 ± 0.1
RTASRSVSTTQN,protein stability index,0.745 ± 0.024
SRRLQSPVRVVT,protein stability index,0.773 ± 0.15
SRTLYERTRFVL,protein stability index,0.647 ± 0.018
AKSKALGLSPRS,protein stability index,0.649 ± 0.046
APPTTPPPGTHP,protein stability index,0.696 ± 0.069
DIGGLGYCDCVK,protein stability index,0.758 ± 0.054
SCVSDAKMGGLG,protein stability index,0.655 ± 0.084
PPPAPARPPTPP,protein stability index,0.686 ± 0.11
WGLLCPLRSDNV,protein stability index,0.705 ± 0.017
WQGSASCSVVLV,protein stability index,0.55 ± 0.043
APYPVSRGLLGF,protein stability index,0.656 ± 0.057
HLSLFHIALPPP,protein stability index,0.6888 ± 0.0053
RLPTRRSALMGL,protein stability index,0.738 ± 0.043
GSSLRRLPASCD,protein stability index,0.676 ± 0.066
KREMCHRYTRRS,protein stability index,0.67 ± 0.097
DLATSVVYIVTV,protein stability index,0.506 ± 0.0077
HSRPPPSPPDPA,protein stability index,0.603 ± 0.033
ERCQGGSGVLIR,protein stability index,0.638 ± 0.1
HRLGNRGGRTLG,protein stability index,0.6512 ± 0.0057
SPPRPSSPRASP,protein stability index,0.664 ± 0.074
SPPSHPHRPTFP,protein stability index,0.753 ± 0.28
LADLLRCSYSLS,protein stability index,0.677 ± 0.046
GNAKKRKNKEKK,protein stability index,0.651 ± 0.09
DQIYEKQKIPST,protein stability index,0.621 ± 0.0079
SPPPSPAPPPPP,protein stability index,0.684 ± 0.083
TATPQRQPHKSP,protein stability index,0.706 ± 0.013
LVFGVSRRLGRG,protein stability index,0.65 ± 0.01
LRPSLPCPPFCP,protein stability index,0.641 ± 0.057
CRFRFGFNFSSF,protein stability index,0.581 ± 0.075
FAKELSLRSFSA,protein stability index,0.814 ± 0.04
VPDGVAGRRPDR,protein stability index,0.679 ± 0.056
MGLVVGILVGHR,protein stability index,0.647 ± 0.098
SFSAFRCDPAEM,protein stability index,0.676 ± 0.011
FYVTRIGPLDMS,protein stability index,0.801 ± 0.023
SRNKLNSIIIEK,protein stability index,0.608 ± 0.046
DLVRGGNCVYGV,protein stability index,0.66 ± 0.032
RCSKFRKFFKHR,protein stability index,0.6565 ± 0.0031
LTASPPRLPPFP,protein stability index,0.701 ± 0.0081
WISLRRIKSNRE,protein stability index,0.802 ± 0.014
KRKKKKKRRTKK,protein stability index,0.6442 ± 0.0045
EMNKGKREKKGE,protein stability index,0.684 ± 0.084
RVCPPPLRRLLS,protein stability index,0.693 ± 0.081
KTKKPIILDTSN,protein stability index,0.6406 ± 0.0047
PPLPPPTPLQCL,protein stability index,0.696 ± 0.027
GKIGAIRVVGWA,protein stability index,0.662 ± 0.02
NIAPPNHASIVL,protein stability index,0.695 ± 0.014
RDGIMTDDKRIS,protein stability index,0.707 ± 0.035
ALVRVVRGIGFC,protein stability index,0.697 ± 0.062
VKTLNQKCIKKN,protein stability index,0.719 ± 0.062
WGGRAVGVLGVG,protein stability index,0.629 ± 0.048
TNTPSYSSRAEF,protein stability index,0.733 ± 0.11
PSSLFPPPPSVL,protein stability index,0.685 ± 0.029
SFGGRMSVPTCC,protein stability index,0.594 ± 0.035
APDPARPSTRPL,protein stability index,0.6892 ± 0.0058
LVALCGYTLRLR,protein stability index,0.487 ± 0.076
GIVFVFGGGLAL,protein stability index,0.702 ± 0.078
RKIIIINLQKIK,protein stability index,0.586 ± 0.024
NLRESRSLKGVI,protein stability index,0.73 ± 0.016
VCAAWKCRLDAG,protein stability index,0.624 ± 0.0043
KNRKIIIITLPK,protein stability index,0.63 ± 0.036
RGSVDGTLQKPG,protein stability index,0.6691 ± 0.00087
YAYLGSNLKQTA,protein stability index,0.703 ± 0.03
VPPRPAPRLRPP,protein stability index,0.695 ± 0.07
VGAGVAGGASVS,protein stability index,0.613 ± 0.027
EWEKPEDLHKPA,protein stability index,0.659 ± 0.058
YLSVLQLRCFPA,protein stability index,0.659 ± 0.019
LMYPGTSPLSPH,protein stability index,0.711 ± 0.092
LVGLGGCLVGLR,protein stability index,0.6277 ± 0.0027
GRKVPQRRQSAR,protein stability index,0.749 ± 0.015
RGSTLPRRVRLK,protein stability index,0.641 ± 0.042
NVLNLTDTKETL,protein stability index,0.652 ± 0.046
RGEARDARGLEW,protein stability index,0.763 ± 0.12
RGCRVMATGVGV,protein stability index,0.651 ± 0.022
EEKRPWRRELLS,protein stability index,0.562 ± 0.025
FVPPGTTSPNTT,protein stability index,0.731 ± 0.059
ARHPLCLPVLLT,protein stability index,0.548 ± 0.02
VGWWVAVGWGLG,protein stability index,0.704 ± 0.067
GCADNNRLGNVV,protein stability index,0.66 ± 0.011
